Key:
primary human T-cells = experiment: Eltrombopag and IL-2 on CrGFR sorted (CD110+) primary human T-cells, up to 7 days; format: cell-based; settings: second donor (FIG. 12)
Protocol: (§1) FIG. 10—Analysis of Eltrombopag and IL-2 on CrGFR sorted primary human T-cells from Donor 4. Primary human T-cells from donor 4 were transduced with the WT TpoR or variant CrGFR, and enriched for expression by Miltenyi MACS technology selected for and incubated in the presence of IL2 or Eltrombopag. Cells were removed at time points up to 7 days and the number of cells expressing the receptor assessed using PE conjugated anti-CD110 antibodies, DRAQ7 viability dye and a MACSQuant analyser.
as §1, with “11—Analysis” for “10—Analysis”, “5.” for “4.”, “5” for “4”
as §1, with “12—Analysis” for “10—Analysis”, “6.” for “4.”, “6” for “4”
Paramagnetic bead sorts were conducted as per the manufacturers' instructions using either anti-PE microbeads (Miltenyi Biotec or StemCell Technologies), or T-cell isolation beads (17951: StemCell Technologies).
Next Applicants repeated the experiment but sorted the CrGFR+ cells using CD110+ selection by paramagnetic bead selection using the receptors identified from the first round of selections (FIGS. 10, 11 and 12). Applicants observed enhanced survival of T-cells engrafted with the majority of the CrGFR in all three donors. In particular Applicants saw expansion of WT-TpoR, TpOR.CD40, TpOR.IL2rγ and TpoR.LMP1-cyto cells in the second donor (FIG. 12) above that with media alone.

[1] = Previous attempts to modify TpoR (surface expression, activity); format: cell-based; settings: previously validated
Excerpt: However attempts to modify the receptor were not always straightforward. […] Furthermore, Applicants felt that they could improve the signalling capacity of TpoR-based receptors in T-cells by including signalling components which activate JAK3, a signalling molecule involved in IL-2 signalling but not in TpoR signalling, and therefore more likely to drive IL-2 like signals in engineered cells.
Applicants therefore aimed to generate fusion receptors wherein additional domains were fused directly to the C-terminus of the TpoR IC domain. Applicants first generated a fusion between TpoR and the IL2rβ signalling domain. […] Applicants therefore took an alternative approach where a hybrid TpoR-IL2rβ signalling domain was created whereby the I2rβ signalling region was fused N- or C-terminal to TpoR signalling domain. Next Applicants generated receptors where the cytoplasmic domain of TIAF1, TLR1, CD150, IL2rγ, CD40, LMP1 and ITAM1 from CD3ζ were fused C-terminal to the TpoR signalling domain. […] Applicants also generated CrGFR consisting of TpoR extracellular and transmembrane domain fused to the cytoplasmic domain of CD28 and CD137 as Applicants felt these would provide a costimulatory growth signal upon Eltrombopag administration, sequences of these constructs are provided below.

T-cells = settings: via administration of Tpo or Eltrombopag; cited from earlier work

B1: WT TpoR: Wild type TpoR, SEQ ID NO: 1, 635 amino acids (protein, listed as Homo sapiens)
chain: MPSWALFMVTSCLLLAPQNLAQVSSQDVSLLASDSEPLKCFSRTFEDLTCFWDEEEAAPSGTYQLLYAYPREKPRACPLSSQSMPHFGTRYVCQFPDQEEVRLFFPLHLWVKNVFLNQTRTQRVLFVDSVGLPAPPSIIKAMGGSQPGELQISWEEPAPEISDFLRYELRYGPRDPKNSTGPTVIQLIATETCCPALQRPHSASALDQSPCAQPTMPWQDGPKQTSPSREASALTAEGGSCLISGLQPGNSYWLQLRSEPDGISLGGSWGSWSLPVTVDLPGDAVALGLQCFTLDLKNVTCQWQQQDHASSQGFFYHSRARCCPRDRYPIWENCEEEEKTNPGLQTPQFSRCHFKSRNDSIIHILVEVTTAPGTVHSYLGSPFWIHQAVRLPTPNLHWREISSGHLELEWQHPSSWAAQETCYQLRYTGEGHQDWKVLEPPLGARGGTLELRPRSRYRLQLRARLNGPTYQGPWSSWSDPTRVETATETAWISLVTALHLVLGLSAVLGLLLLRWQFPAHYRRLRHALWPSLPDLHRVLGQYLRDTAALSPPKATVSDTCEEVEPSLLEILPKSSERTPLPLCSSQAQMDYRRLQPSCLGTMPLSVCPPMAESGSCCTTHIANHSYLPLSYWQQP
modifications: MISC_FEATURE (1)..(491): TpoR Extracellular Domain; MISC_FEATURE (492)..(513): TpoR Transmembrane Domain; MISC_FEATURE (514)..(635): TpoR Cytoplasmic Domain
Primary human T-cells
  expansion of CrGFR cells above that with media alone: expansion
[1]
  activity in primary human T-cells: can have activity
T-cells
  survival and expansion of engineered T-cells: could permit controlled survival and expansion of T-cells
